From publication PMC9915621 come the findings set out here.

Where two headings read alike, the source gives them in different places.

Assay in all cases: EMSA
For orientation: In EMSA bound probe runs differently from free probe, usually more slowly.

Data set [1] deals with T1, PlzA RD-RD (Borrelia burgdorferi B31, UniProt O51675 1-261, R145D;R149D).
T1 sequence: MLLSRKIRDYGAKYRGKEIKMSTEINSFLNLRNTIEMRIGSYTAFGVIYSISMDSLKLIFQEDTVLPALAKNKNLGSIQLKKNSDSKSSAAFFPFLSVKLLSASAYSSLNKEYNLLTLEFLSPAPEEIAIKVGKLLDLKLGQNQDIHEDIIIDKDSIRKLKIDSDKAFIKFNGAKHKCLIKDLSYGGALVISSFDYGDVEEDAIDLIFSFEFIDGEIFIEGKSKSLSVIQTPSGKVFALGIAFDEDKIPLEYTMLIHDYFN

Data set [2] has as its target T2, PlzA WT (Borrelia burgdorferi B31, UniProt O51675 1-261).
T2 sequence: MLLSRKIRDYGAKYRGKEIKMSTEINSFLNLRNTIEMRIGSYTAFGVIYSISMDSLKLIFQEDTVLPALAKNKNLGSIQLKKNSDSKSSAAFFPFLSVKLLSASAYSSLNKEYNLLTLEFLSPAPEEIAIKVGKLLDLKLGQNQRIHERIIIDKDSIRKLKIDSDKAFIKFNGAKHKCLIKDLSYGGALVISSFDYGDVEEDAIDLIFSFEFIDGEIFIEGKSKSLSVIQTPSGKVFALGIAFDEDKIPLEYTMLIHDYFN

Data set [3] has as its target T3, PlzA CTD (Borrelia burgdorferi B31, UniProt O51675 142-261).
T3 sequence: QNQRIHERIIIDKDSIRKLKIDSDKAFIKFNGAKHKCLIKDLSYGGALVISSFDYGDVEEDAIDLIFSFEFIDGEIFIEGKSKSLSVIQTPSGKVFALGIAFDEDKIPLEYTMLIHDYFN

The target in data set [4] is T2, PlzA WT. The source holds these as a separate data set.
Data set [5] deals with T2, PlzA WT. This is another data set of the same source.
In data set [6] the target is T2, PlzA WT. This is another data set of the same source.
Data set [7] concerns the target T1, PlzA RD-RD. The source holds these as a separate data set.
The target in data set [8] is T2, PlzA WT. This is another data set of the same source.

For the molecule AUAAUUUUAAUAAGGCUUUUAUUAGAAAAAUUAAU (ssRNA) [glpFKD(UTR) RNA], the binding result in data set [1] and in data set [3] was “no binding” in each case. For the same molecule, the Kd – broadly, the equilibrium constant for the complex coming apart – in data set [2] came to 950 nM; in data set [4], 4140 nM.

B1: glpFKD(-7/+35) (dsDNA)
DNA 1: ATTAAATATAATTTTAATAAGGCTTTTATTAGAAAAATTAAT
DNA 2: ATTAATTTTTCTAATAAAAGCCTTATTAAAATTATATTTAAT
Regarding B1, the Kd in data set [5] is 1250 nM; in data set [6], 2810 nM; in data set [2] it was 1090 nM; in data set [8], 1330 nM; in data set [4] it was 4220 nM. Further, the binding result in data set [7] and in data set [3] was “no binding” throughout.
Molecule ATTAAATATAATTTTAATAAGGCTTTTATTAGAAAAATTAAT (ssDNA) [ssglpF] yielded a dissociation constant (Kd) in data set [2] of 4420 nM. In other words, the single-digit micromolar range.
